Publication PMC11673000 (2024)

B1: FAT10 wild type (His-3xFLAG-FAT10) [not stated] / NEDD8 ultimate buster-1 long (NUB1L) [not stated] (parent complex)
chain 1: MAPNASCLCVHVRSEEWDLMTFDANPYDSVKKIKEHVRSKTKVPVQDQVLLLGSKILKPRRSLSSYGIDKEKTIHLTLKVVKPSDEELPLFLVESGDEAKRHLLQVRRSSSVAQVKAMIETKTGIIPETQIVTCNGKRLEDGKMMADYGIRKGNLLFLACYCIGG
chain 2: MAQKKYLQAKLTQFLREDRIQLWKPPYTDENKKVGLALKDLAKQYSDRLECCENEVEKVIEEIRCKAIERGTGNDNYRTTGIATIEVFLPPRLKKDRKNLLETRLHITGRELRSKIAETFGLQENYIKIVINKKQLQLGKTLEEQGVAHNVKAMVLELKQSEEDARKNFQLEEEEQNEAKLKEKQIQRTKRGLEILAKRAAETVVDPEMTPYLDIANQTGRSIRIPPSERKALMLAMGYHEKGRAFLKRKEYGIALPCLLDADKYFCECCRELLDTVDNYAVLQLDIVWCYFRLEQLECLDDAEKKLNLAQKCFKNCYGENHQRLVHIKGNCGKEKVLFLRLYLLQGIRNYHSGNDVEAYEYLNKARQLFKELYIDPSKVDNLLQLGFTAQEARLGLRACDGNVDHAATHITNRREELAQIRKEEKEKKRRRLENIRFLKGMGYSTHAAQQVLHAASGNLDEALKILLSNPQMWWLNDSNPETDNRQESPSQENIDRLVYMGFDALVAEAALRVFRGNVQLAAQTLAHNGGSLPPELPLSPEDSLSPPATSPSDSAGTSSASTDEDMETEAVNEILEDIPEHEEDYLDSTLEDEEIIIAEYLSYVENRKSATKKN

Variants of: B1
Assay: HA-immunoprecipitation, SDS-PAGE and immunoblot (ECL quantification); HEK293T cells transiently co-transfected with HA-NUB1L and FLAG-FAT10; three independent experiments; parent: 4.3; read off a plot

Variant | response
chain 1 S62D, chain 1 S64D | ~4.7 IP [FAT10] / Load [FAT10], FAT10 D = 1
chain 1 S62D, chain 1 T77E | ~2.8 IP [FAT10] / Load [FAT10], FAT10 D = 1
chain 1 S62D, chain 1 S64D, chain 1 S95D, chain 1 S109D | ~7.7 IP [FAT10] / Load [FAT10], FAT10 D = 1
chain 1 S64D, chain 1 T77E | ~2.5 IP [FAT10] / Load [FAT10], FAT10 D = 1
chain 1 S62D, chain 1 S64D, chain 1 T77E | ~1.9 IP [FAT10] / Load [FAT10], FAT10 D = 1
chain 1 T77E | ~1.8 IP [FAT10] / Load [FAT10], FAT10 D = 1

Variants of: B1
Assay: HA-immunoprecipitation, SDS-PAGE and immunoblot (ECL quantification); HEK293T cells transiently co-transfected with HA-NUB1L and FLAG-FAT10; three independent experiments; parent: 4; read off a plot

Variant | response
chain 1 S64D | ~2.6 IP [FAT10] / Load [FAT10], FAT10 D = 1
chain 1 S62D | ~3.4 IP [FAT10] / Load [FAT10], FAT10 D = 1
chain 1 S95D | ~2.6 IP [FAT10] / Load [FAT10], FAT10 D = 1
chain 1 S109D | ~3 IP [FAT10] / Load [FAT10], FAT10 D = 1
chain 1 T77E | ~0.95 IP [FAT10] / Load [FAT10], FAT10 D = 1

Variants of: B1
Assay: HA-immunoprecipitation, SDS-PAGE and immunoblot (ECL quantification); HEK293T cells transiently co-transfected with HA-NUB1L and FLAG-FAT10; three independent experiments; parent: 4

Variant | response
chain 1 S62D, chain 1 S64D, chain 1 T77E, chain 1 S95D, chain 1 S109D | 1 IP [FAT10] / Load [FAT10], FAT10 D = 1

Variants of: B1
Assay: HA-immunoprecipitation, SDS-PAGE and immunoblot (ECL quantification); HEK293T cells transiently co-transfected with HA-NUB1L and FLAG-FAT10; three independent experiments; parent: 4.3

Variant | response
chain 1 S62D, chain 1 S64D, chain 1 T77E, chain 1 S95D, chain 1 S109D | 1 IP [FAT10] / Load [FAT10], FAT10 D = 1
